Measured values reported in FireProtDB (doi:10.1093/protein/7.9.1089).
Where “and” joins values, the source holds several entries; their conditions need not be identical. Equal values may be shown once.

Settings: Bacillus amyloliquefaciens, pH 4.4, Thermal, DSC, Sodium acetate/Acetic acid 6.08 mM/13.92 mM/, reversible: yes (>95%), whole UniProt chain shown

B1: Ribonuclease wild type, P00648 (protein)
chain: MMKMEGIALKKRLSWISVCLLVLVSAAGMLFSTAAKTETSSHKAHTEAQVINTFDGVADYLQTYHKLPDNYITKSEAQALGWVASKGNLADVAPGKSIGGDIFSNREGKLPGKSGRTWREADINYTSGFRNSDRILYSSDWLIYKTTDHYQTFTKIR
- heat capacity change of unfolding (25 °C): 1.6 kcal/mol/K
- unfolding free energy (25 °C): 8.69 kcal/mol and 8.66 kcal/mol
- Tm: 51.5 °C and 51.6 °C
- unfolding enthalpy (calorimetric): 128 kcal/mol
- unfolding enthalpy (van 't Hoff): 128 kcal/mol and 129 kcal/mol
